Reference: patent publication US20240317847A1 (Bayer, published 2024)
Substitutions are numbered along the chain they refer to.

Columns and labels:
[1] = target: T1, human IL2Ra (Peprotech, Germany, #200-02RC) (human, UniProt P01589 22-240); experiment: direct binding ELISA on coated IL2Ra, antibody at 3.3E-7 [M]
T1 construct: Coated on the ELISA plate; also called hIL2Ra; IL-2 receptor alpha
T1 sequence (looked up): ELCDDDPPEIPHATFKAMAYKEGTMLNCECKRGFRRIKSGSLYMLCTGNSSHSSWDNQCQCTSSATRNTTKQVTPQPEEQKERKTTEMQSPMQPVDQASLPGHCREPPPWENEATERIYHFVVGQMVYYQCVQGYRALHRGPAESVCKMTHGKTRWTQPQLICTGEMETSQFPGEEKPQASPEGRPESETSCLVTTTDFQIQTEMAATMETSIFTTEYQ
Protocol: IL2RA (Peprotech, Germany, #200-02RC) was coated at 1 or 0 μg/ml (buffer only control) in 30 μl coating buffer (Candor, #113500) per well on a 384 well microtiter plate (Maxisorb, Nunc, #460518) over night at 4-8° C. After two washes with 50 μl/well washing buffer (PBS+0.05% Tween, pH 7.4), the plates were incubated for two hours at room temperature with 50 μl/well SmartBlock (Candor, #113500). After blocking, the plates were washed three times with washing buffer. […] After three additional washes, 30 μl anti mouse IgG HRP-conjugated antibody (Biotechne, HAF007), diluted 1:1000 in PBS+0.05% Tween (pH 7.4), were added per well and incubated for one hour. After three additional washes, a mixture of Amplex red (Invitrogen, #12222, 10 mM stock solution in DMSO) 1:1000 diluted in PBS and H2O2 (30%, Merck, #107209)) diluted 1:10000 in PBS were added as substrate with 30 μl per well and incubated for 20 min in the dark. Relative fluorescence was measured with a microtiter plate reader at 535/590 nm.

[2] = target: T2, human IL-11 (human, UniProt P20809 22-199); experiment: cell-based or functional assay
T2 sequence: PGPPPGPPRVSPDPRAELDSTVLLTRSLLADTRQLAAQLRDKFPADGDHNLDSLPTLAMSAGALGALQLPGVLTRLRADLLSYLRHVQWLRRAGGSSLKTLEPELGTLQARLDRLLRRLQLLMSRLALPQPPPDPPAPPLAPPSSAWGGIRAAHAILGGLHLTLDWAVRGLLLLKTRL

[3] = target: T3, murine IL-11 (mouse, UniProt P47873 22-199); experiment: cell-based or functional assay
T3 sequence: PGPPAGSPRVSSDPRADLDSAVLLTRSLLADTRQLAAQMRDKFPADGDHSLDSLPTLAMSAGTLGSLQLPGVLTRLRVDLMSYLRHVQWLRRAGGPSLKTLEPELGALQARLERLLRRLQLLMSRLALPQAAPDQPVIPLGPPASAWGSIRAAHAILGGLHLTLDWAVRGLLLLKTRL

[4] = target: T4, cynomolgus IL-11 (cynomolgus, UniProt P20808 22-199); experiment: cell-based or functional assay
T4 sequence: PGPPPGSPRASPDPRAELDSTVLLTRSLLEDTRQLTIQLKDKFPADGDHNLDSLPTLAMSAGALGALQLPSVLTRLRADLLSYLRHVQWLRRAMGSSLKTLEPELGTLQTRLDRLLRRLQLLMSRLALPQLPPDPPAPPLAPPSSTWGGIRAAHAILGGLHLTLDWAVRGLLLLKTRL

[5] = target: T5, rat IL-11 (rat, UniProt Q99MF5 22-199); experiment: cell-based or functional assay
T5 sequence: T3 sequence with S50N, L84F, G94A, V137A, I138V

[6] = target: T6, human IL-11 (human, UniProt P20809 22-199); experiment: Tri-complex ELISA, hIL-11 + mIL-11Ra-Fc + hgp130-Fc, inhibition of complex formation; Tri-complex ELISA (IL-11/IL-11Ra/gp130 formation)
T6 construct: Invigate recombinant protein; biotinylated when immobilized in the Di-complex ELISA; also called hIL11; hIL-11
T6 sequence: T2 sequence
Protocol: In the Tri-complex ELISA format IL-11 antibodies are tested for their ability to inhibit the formation of a complex consisting of murine or human gp130-Fc fusion protein, with murine or human IL-11, and a murine IL11RA-Fc fusion protein. The assay format was adapted according to FIG. 18 (a, b), depending on whether murine or human IL-11 IgG antibodies were tested.
The assay was performed using High Binding microtiter plates (Greiner, #781077). In a first step, 25 μl of goat anti human IgG (Sigma, #12136), diluted 1:1000 in coating buffer (Candor, #121125) was coated on the plate at 4° C. overnight. Next day, the plate was washed one time with 50 μl PBST and then blocked with 50 μl SmartBlock (Candor, #113125) for one hour at room temperature (RT). […] After three additional washes of the coated and blocked microtiter plate with PBS-T, 25 μl of each mixture were added and the assay plate was incubated for one hour at room temperature. After three additional washes, anti-mouse-gp130 biotinylated antibody (R&D, #BAF468) or anti-human gp130 biotinylated antibody (R&D, #BAF228), both 1:1000 in 10% SmartBlock PBS-T, was added and incubated for 1 hour at RT. After three additional washes, a Streptavidin-Peroxidase conjugate (Sigma, #S5512) 1:1000 in SmartBlock PBS-T was added and incubated for one hour at room temperature. […] Then, the fluorescence was measured with a plate reader at 535/595 nm. […]

[7] = target: T7, murine IL-11 (mouse, UniProt P47873 22-199); experiment: Di-complex ELISA, murine IL11RA-Fc binding to immobilized mIL-11, competition
T7 construct: Invigate recombinant protein; biotinylated when immobilized in the Di-complex ELISA; also called mIL11; mIL-11
T7 sequence: T3 sequence
Protocol: In the Di-complex ELISA format anti IL-11 antibodies are tested for the ability to interfere with the formation of complexes consisting of immobilized murine IL-11 (Invigate, e.g., lot #C210819-09) or human IL-11 (Invigate, e.g., lot #C121021-19), and murine IL11RA-Fc fusion proteins or canine IL11RA-human-Fc fusion protein (FIG. 17a, b).
Bispecific antibodies were subjected to the experimental assay procedure described in Example 18 and IC50 [M], respectively efficacy (%) were calculated accordingly.

B1: TPP-18087 (antibody, mouse IgG1, V domains shown)
VH: EVQLLESGGGLVQPGGSLRLSCAASGFTFSHYDMNWLRQAPGKGLEWVGVISYDGSNKFYADFVKGRFTISRDNSKNTLYLQMNSLRAEDTAVYYCARTPGSHFDYWGQGTLVTVSS
VL: QSVLTQPPSASGTPGQRVTISCSGSSSNIGNNAVNWYQQLPGTAPKLLIYYDDLLPSGVPDRFSGSKSGTSASLAISGLRSEDEADYYCSAWDDSLNGVVFGGGTKLTVLG
notes: mIgG1, Lambda
[1]
  ratio of the signals versus the isotype control TPP-10159: 2.4

B2: TPP-19528 (antibody, mouse IgG1, V domains shown)
VH: EVQLLESGGGLVQPGGSLRLSCAASGFTFSIYAMSWVRQAPGKGLEWVSSISDTGDRTYYADSVKGRFTISRDNSKNTLYLQMNSLRAEDTAVYYCARSNWGSLDYWGQGTLVTVSS
VL: B1 VL with N31S, A33Y, N35Y, S90A, N97S, V99R
notes: mIgG1, Lambda
[1]
  ratio of the signals versus the isotype control TPP-10159: 0.8

B3: TPP-18068 (antibody, mouse IgG1)
heavy: EVQLLESGGGLVQPGGSLRLSCAASGFTFSSYGMHWVRQAPGKGLEWVSVISYDGSYKYYADSVKGRFTISRDNSKNTLYLQMNSLRAEDTAVYYCAAGVPDYWGQGTLVTVSSAKTTPPSVYPLAPGSAAQTNSMVTLGCLVKGYFPEPVTVTWNSGSLSSGVHTFPAVLQSDLYTLSSSVTVPSSTWPSETVTCNVAHPASSTKVDKKIVPRDCGCKPCICTVPEVSSVFIFPPKPKDVLTITLTPKVTCVVVDISKDDPEVQFSWFVDDVEVHTAQTQPREEQFNSTFRSVSELPIMHQDWLNGKEFKCRVNSAAFPAPIEKTISKTKGRPKAPQVYTIPPPKEQMAKDKVSLTCMITDFFPEDITVEWQWNGQPAENYKNTQPIMDTDGSYFVYSKLNVQKSNWEAGNTFTCSVLHEGLHNHHTEKSLSHSPGK
light: QSVLTQPPSASGTPGQRVTISCTGSSSNIGAGYDVHWYQQLPGTAPKLLIYSNNERPSGVPDRFSGSKSGTSASLAISGLRSEDEADYYCAAWDDSLNGPVFGGGTKLTVLGQPKSSPSVTLFPPSSEELETNKATLVCTITDFYPGVVTVDWKVDGTPVTQGMETTQPSKQSNNKYMASSYLTLTARAWERHSSYSCQVTHEGHTVEKSLSRADCS
notes: mIgG1, Lambda
[2]
  RGA Efficacy (%): 46.1%
  RGA IC50: 6.5 nM
[3]
  RGA Efficacy (%): 93.6%
  RGA IC50: 1.2 nM
[4]
  RGA Efficacy (%): 70%
  RGA IC50: 4.1 nM
[5]
  RGA Efficacy (%): 94%
  RGA IC50: 1.8 nM

B4: TPP-18068 (antibody, mouse IgG1)
heavy: B3 heavy
light: B3 light
notes: mIgG1, Lambda
[6]
  IC50: 1700 nM

B5: TPP-29697 (bispecific antibody, IgG1)
chain 1: QVQLVESGGGVVQPGRSLRLSCAASGFTFSHYDMHWVRQAPGKGLEWVAVISYHGSVKFYADSVKGRFTISRDNSKNTLYLQMNSLRAEDTAVYYCARTPGFHFDYWGQGTLVTVSSGGGGSGGGGSGGGGSQSVLTQPPSASGTPGQRVTISCSGSSSNIGSNYVSWYQQLPGTAPKLLIYYDDLRPSGVPDRFSGSKSGTSASLAISGLRSEDEADYYCSAWDDSLSGVVFGGGTKLTVLGGGGSGGGGSGGGGSGVECPPCPAPPVAGPSVFLFPPKPKDTLMISRTPEVTCVVVGVSHEDPEVKFNWYVDGVEVHNAKTKPREEQYNSTYRVVSVLTVLHQDWLNGKEYKCKVSNKQLPSPIEKTISKAKGQPREPQVYTLPPCRDELTKNQVSLWCLVKGFYPSDIAVEWESNGQPENNYKTTPPVLDSDGSFFLYSKLTVDKSRWQQGNVFSCSVMHEALHNHYTQKSLSLSPGK
chain 2: EVQLLESGGGLVQPGGSLRLSCAASGFTFSSYGMHWVRQAPGKGLEWVAVISYDGSYKYYADSVKGRFTISRDNSKNTLYLQMNSLRAEDTAVYYCAAGVPDYWGQGTLVTVSSGGGGSGGGGSGGGGSQSVLTQPPSASGTPGQRVTISCSGSSSNIGSDYDVHWYQQLPGTAPKLLIYSNEERPSGVPDRFSGSKSGTSASLAISGLRSEDEADYYCSAWDSSLSGPVFGGGTKLTVLGGGGSGGGGSGGGGSGVECPPCPAPPVAGPSVFLFPPKPKDTLMISRTPEVTCVVVGVSHEDPEVKFNWYVDGVEVHNAKTKPREEQYNSTYRVVSVLTVLHQDWLNGKEYKCKVSNKQLPSPIEKTISKAKGQPREPQVCTLPPSRDELTKNQVSLSCAVKGFYPSDIAVEWESNGQPENNYKTTPPVLDSDGSFFLVSKLTVDKSRWQQGNVFSCSVMHEALHNHYTQKSLSLSPGK
notes: scFv-kih-hIgG1 with Fc-silencing mutations; bispecific comprising CDRs of TPP-29528 and TPP-29519
[7]
  IC50: 1.4 nM
